# Results as given in patent publication US20250076311A1 (Chugai, published 2025).
# T1: human FcγRIIb constitutively expressed on MDCK cells (human, UniProt P31994 43-310)
# T1 sequence (looked up): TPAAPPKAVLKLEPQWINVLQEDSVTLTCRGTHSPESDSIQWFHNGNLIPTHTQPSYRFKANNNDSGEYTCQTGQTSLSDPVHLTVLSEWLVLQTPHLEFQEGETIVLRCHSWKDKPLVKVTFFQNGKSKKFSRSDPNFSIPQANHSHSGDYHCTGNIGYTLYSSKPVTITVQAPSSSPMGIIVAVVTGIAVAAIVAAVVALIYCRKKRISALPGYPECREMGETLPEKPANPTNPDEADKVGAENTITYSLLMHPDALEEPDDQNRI
# T2: soluble mouse FcγRII, His-tagged (mouse, UniProt P08101 30-210, limits assumed)
# T2 construct: Captured on the chip through an anti-His antibody
# T2 sequence (looked up): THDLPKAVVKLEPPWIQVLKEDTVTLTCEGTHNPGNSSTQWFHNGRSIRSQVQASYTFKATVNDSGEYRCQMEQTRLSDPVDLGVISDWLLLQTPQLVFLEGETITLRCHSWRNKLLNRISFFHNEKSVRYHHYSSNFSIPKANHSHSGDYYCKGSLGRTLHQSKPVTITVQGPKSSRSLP
# Experiments:
# [1] = target: T1, human FcγRIIb constitutively expressed …; assay: cell-based or functional assay
# [2] = target: T2, soluble mouse FcγRII, His-tagged; assay: SPR, mouse FcγRII captured via His-tag, antigen-antibody complex injected, pH 7.4, 25 C
# Protocol: Regarding the produced Fc region variant-containing antibodies, binding assays between soluble mouse FcγRII and antigen-antibody complexes were performed using BIACORE® T200 (GE Healthcare). Soluble mouse FcγRII was produced in the form of a His-tagged molecule by a method known to those skilled in the art. An appropriate amount of an anti-His antibody was fixed onto Sensor chip CM5 (GE Healthcare) by the amine coupling method using a His capture kit (GE Healthcare) to capture mouse FcγRII. Next, an antibody-antigen complex and a running buffer (as a reference solution) were injected, and interaction was allowed to take place with the mouse FcγRII captured onto the sensor chip. 20 mM N-(2-Acetamido)-2-aminoethanesulfonic acid, 150 mM NaCl, 1.2 mM CaCl₂), and 0.05% (w/v) TWEEN® 20 at pH7.4 was used as the running buffer, and the respective buffer was also used to dilute the soluble mouse FcγRII. To regenerate the sensor chip, 10 mM glycine-HCl at pH1.5 was used. All measurements were carried out at 25° C. […] To calculate the parameters, the BIACORE® T100 Evaluation Software (GE Healthcare) was used.
Binder,celluar uptake (labelled human latent myostatin taken up as antigen-antibody complex) [1],"biacore IC binding (relative, SG1 = 1.00) [2]"
"M103205H795-P1539m/M103202L889-SK1 (antibody, human IgG1, kappa, name in EU numbering, copies: 2 + 2) heavy: not shown light: DIVMTQSPATLSLSPGERATLSCTSSQSVYHANWLSWFQQKPGQPPKLLIYWASTLAYGVPSRFSGSGSGTDFTLTISSLQPEDAATYYCAGGYGGGRYAFGQGTKVEIKRTVAAPSVFIFPPSDEQLKSGTASVVCLLNNFYPREAKVQWKVDNALQSGNSQESVTEQDSKDSTYSLSSTLTLSKADYEKHKVYACEVTHQGLSSPVTKSFNRGEC",3.2 relative to SG1 = 1.00,0.9 relative to SG1
"M103205H795-P1541m/M103202L889-SK1 (antibody, human IgG1, kappa, name in EU numbering, copies: 2 + 2) heavy: not shown light: DIVMTQSPATLSLSPGERATLSCTSSQSVYHANWLSWFQQKPGQPPKLLIYWASTLAYGVPSRFSGSGSGTDFTLTISSLQPEDAATYYCAGGYGGGRYAFGQGTKVEIKRTVAAPSVFIFPPSDEQLKSGTASVVCLLNNFYPREAKVQWKVDNALQSGNSQESVTEQDSKDSTYSLSSTLTLSKADYEKHKVYACEVTHQGLSSPVTKSFNRGEC",7.17 relative to SG1 = 1.00,1.57 relative to SG1
"M103205H795-P1545m/M103202L889-SK1 (antibody, human IgG1, kappa, name in EU numbering, copies: 2 + 2) heavy: QVTLKESGPVLVKPTETLTLTCTVSGIDLSHDDISWVRQAPGKGLEWVGIISYAGSTYYASWAKGRLTISKDTSKNQVVLTMTNMDPVDTATYYCARGVPAYSHGGDLWGQGTLVTVSSASTKGPSVFPLAPSSKSTSGGTAALGCLVKDYFPEPVTVSWNSGALTSGVHTFPAVLQSSGLYSLSSVVTVPSSSLGTQTYICNVNHKPSNTKVDKKVEPKSCDKTHTCPPCPAPELLGGPSVFLFPPKPKDTLMISRTPEVTCVVVDVSHEDPEVKFNWYVDGVEVHNAKTKPREEQYNSTYRVVSVLTVLHRDWLNGKEYKCKVSNKALPAPIEKTISKAKGQPREPQVYTLPPSREEMTKNQVSLTCLVKGFYPSDIAVEWESNGQPENNYKTTPPVLDSKGSFFLYSKLTVKKSRWQQGNVFSCSVMHEALHNHYTQKSLSLSP light: DIVMTQSPATLSLSPGERATLSCTSSQSVYHANWLSWFQQKPGQPPKLLIYWASTLAYGVPSRFSGSGSGTDFTLTISSLQPEDAATYYCAGGYGGGRYAFGQGTKVEIKRTVAAPSVFIFPPSDEQLKSGTASVVCLLNNFYPREAKVQWKVDNALQSGNSQESVTEQDSKDSTYSLSSTLTLSKADYEKHKVYACEVTHQGLSSPVTKSFNRGEC",7.73 relative to SG1 = 1.00,1.8 relative to SG1
"M103205H795-P1547m/M103202L889-SK1 (antibody, human IgG1, kappa, name in EU numbering, copies: 2 + 2) heavy: QVTLKESGPVLVKPTETLTLTCTVSGIDLSHDDISWVRQAPGKGLEWVGIISYAGSTYYASWAKGRLTISKDTSKNQVVLTMTNMDPVDTATYYCARGVPAYSHGGDLWGQGTLVTVSSASTKGPSVFPLAPSSKSTSGGTAALGCLVKDYFPEPVTVSWNSGALTSGVHTFPAVLQSSGLYSLSSVVTVPSSSLGTQTYICNVNHKPSNTKVDKKVEPKSCDKTHTCPPCPAPELLGGPSVFLFPPKPKDTLMISRTPEVTCVVVDVSHEDPEVKFNWYVDGVEVHNAKTKPREEQYNSTYRVVSVLTVLHRDWLNGKEYKCKVSNKALPAPIEKTISKAKGQPREPQVYTLPPSREEMTKNQVSLTCLVKGFYPSDIAVEWESNGQPENNYKTTPPVLDSDKSFFLYSKLTVKKSRWQQGNVFSCSVMHEALHNHYTQKSLSLSP light: DIVMTQSPATLSLSPGERATLSCTSSQSVYHANWLSWFQQKPGQPPKLLIYWASTLAYGVPSRFSGSGSGTDFTLTISSLQPEDAATYYCAGGYGGGRYAFGQGTKVEIKRTVAAPSVFIFPPSDEQLKSGTASVVCLLNNFYPREAKVQWKVDNALQSGNSQESVTEQDSKDSTYSLSSTLTLSKADYEKHKVYACEVTHQGLSSPVTKSFNRGEC",4.85 relative to SG1 = 1.00,1.33 relative to SG1

# Now from value to binder:
celluar uptake (labelled human latent myostatin taken up as antigen-antibody complex) [1],"biacore IC binding (relative, SG1 = 1.00) [2]",Binder
7.64 relative to SG1 = 1.00,1.73 relative to SG1,"M103205H795-P1540m/M103202L889-SK1 (antibody, human IgG1, kappa, name in EU numbering, copies: 2 + 2) heavy: not shown light: DIVMTQSPATLSLSPGERATLSCTSSQSVYHANWLSWFQQKPGQPPKLLIYWASTLAYGVPSRFSGSGSGTDFTLTISSLQPEDAATYYCAGGYGGGRYAFGQGTKVEIKRTVAAPSVFIFPPSDEQLKSGTASVVCLLNNFYPREAKVQWKVDNALQSGNSQESVTEQDSKDSTYSLSSTLTLSKADYEKHKVYACEVTHQGLSSPVTKSFNRGEC"
3.32 relative to SG1 = 1.00,1.21 relative to SG1,"M103205H795-P1542m/M103202L889-SK1 (antibody, human IgG1, kappa, name in EU numbering, copies: 2 + 2) heavy: not shown light: DIVMTQSPATLSLSPGERATLSCTSSQSVYHANWLSWFQQKPGQPPKLLIYWASTLAYGVPSRFSGSGSGTDFTLTISSLQPEDAATYYCAGGYGGGRYAFGQGTKVEIKRTVAAPSVFIFPPSDEQLKSGTASVVCLLNNFYPREAKVQWKVDNALQSGNSQESVTEQDSKDSTYSLSSTLTLSKADYEKHKVYACEVTHQGLSSPVTKSFNRGEC"
3.7 relative to SG1 = 1.00,1.19 relative to SG1,"M103205H795-P1543m/M103202L889-SK1 (antibody, human IgG1, kappa, name in EU numbering, copies: 2 + 2) heavy: not shown light: DIVMTQSPATLSLSPGERATLSCTSSQSVYHANWLSWFQQKPGQPPKLLIYWASTLAYGVPSRFSGSGSGTDFTLTISSLQPEDAATYYCAGGYGGGRYAFGQGTKVEIKRTVAAPSVFIFPPSDEQLKSGTASVVCLLNNFYPREAKVQWKVDNALQSGNSQESVTEQDSKDSTYSLSSTLTLSKADYEKHKVYACEVTHQGLSSPVTKSFNRGEC"
7.66 relative to SG1 = 1.00,2.04 relative to SG1,"M103205H795-P1544m/M103202L889-SK1 (antibody, human IgG1, kappa, name in EU numbering, copies: 2 + 2) heavy: QVTLKESGPVLVKPTETLTLTCTVSGIDLSHDDISWVRQAPGKGLEWVGIISYAGSTYYASWAKGRLTISKDTSKNQVVLTMTNMDPVDTATYYCARGVPAYSHGGDLWGQGTLVTVSSASTKGPSVFPLAPSSKSTSGGTAALGCLVKDYFPEPVTVSWNSGALTSGVHTFPAVLQSSGLYSLSSVVTVPSSSLGTQTYICNVNHKPSNTKVDKKVEPKSCDKTHTCPPCPAPELLGGPSVFLFPPKPKDTLMISRTPEVTCVVVDVSHEDPEVKFNWYVDGVEVHNAKTKPREEQYNSTYRVVSVLTVLHRDWLNGKEYKCKVSNKALPAPIEKTISKAKGQPREPQVYTLPPSREEMTKNQVSLTCLVKGFYPSDIAVEWESNGQPENNYKTTPPVLDSRGSFFLYSKLTVKKSRWQQGNVFSCSVMHEALHNHYTQKSLSLSP light: DIVMTQSPATLSLSPGERATLSCTSSQSVYHANWLSWFQQKPGQPPKLLIYWASTLAYGVPSRFSGSGSGTDFTLTISSLQPEDAATYYCAGGYGGGRYAFGQGTKVEIKRTVAAPSVFIFPPSDEQLKSGTASVVCLLNNFYPREAKVQWKVDNALQSGNSQESVTEQDSKDSTYSLSSTLTLSKADYEKHKVYACEVTHQGLSSPVTKSFNRGEC"
5.1 relative to SG1 = 1.00,1.41 relative to SG1,"M103205H795-P1546m/M103202L889-SK1 (antibody, human IgG1, kappa, name in EU numbering, copies: 2 + 2) heavy: QVTLKESGPVLVKPTETLTLTCTVSGIDLSHDDISWVRQAPGKGLEWVGIISYAGSTYYASWAKGRLTISKDTSKNQVVLTMTNMDPVDTATYYCARGVPAYSHGGDLWGQGTLVTVSSASTKGPSVFPLAPSSKSTSGGTAALGCLVKDYFPEPVTVSWNSGALTSGVHTFPAVLQSSGLYSLSSVVTVPSSSLGTQTYICNVNHKPSNTKVDKKVEPKSCDKTHTCPPCPAPELLGGPSVFLFPPKPKDTLMISRTPEVTCVVVDVSHEDPEVKFNWYVDGVEVHNAKTKPREEQYNSTYRVVSVLTVLHRDWLNGKEYKCKVSNKALPAPIEKTISKAKGQPREPQVYTLPPSREEMTKNQVSLTCLVKGFYPSDIAVEWESNGQPENNYKTTPPVLDSDRSFFLYSKLTVKKSRWQQGNVFSCSVMHEALHNHYTQKSLSLSP light: DIVMTQSPATLSLSPGERATLSCTSSQSVYHANWLSWFQQKPGQPPKLLIYWASTLAYGVPSRFSGSGSGTDFTLTISSLQPEDAATYYCAGGYGGGRYAFGQGTKVEIKRTVAAPSVFIFPPSDEQLKSGTASVVCLLNNFYPREAKVQWKVDNALQSGNSQESVTEQDSKDSTYSLSSTLTLSKADYEKHKVYACEVTHQGLSSPVTKSFNRGEC"
2.3 relative to SG1 = 1.00,1.37 relative to SG1,"M103205H795-P1548m/M103202L889-SK1 (antibody, human IgG1, kappa, name in EU numbering, copies: 2 + 2) heavy: QVTLKESGPVLVKPTETLTLTCTVSGIDLSHDDISWVRQAPGKGLEWVGIISYAGSTYYASWAKGRLTISKDTSKNQVVLTMTNMDPVDTATYYCARGVPAYSHGGDLWGQGTLVTVSSASTKGPSVFPLAPSSKSTSGGTAALGCLVKDYFPEPVTVSWNSGALTSGVHTFPAVLQSSGLYSLSSVVTVPSSSLGTQTYICNVNHKPSNTKVDKKVEPKSCDKTHTCPPCPAPELLGGPSVFLFPPKPKDTLMISRTPEVTCVVVDVSHEDPEVKFNWYVDGVEVHNAKTKPREEQYNSTYRVVSVLTVLHRDWLNGKEYKCKVSNKALPAPIEKTISKAKGQPREPQVYTLPPSREEMTKNQVSLTCLVKGFYPSDIAVEWESNRQPENNYKTTPPVLDSRGSFFLYSKLTVDKSRWQQGNVFSCSVMHEALHNHYTQKSLSLSP light: DIVMTQSPATLSLSPGERATLSCTSSQSVYHANWLSWFQQKPGQPPKLLIYWASTLAYGVPSRFSGSGSGTDFTLTISSLQPEDAATYYCAGGYGGGRYAFGQGTKVEIKRTVAAPSVFIFPPSDEQLKSGTASVVCLLNNFYPREAKVQWKVDNALQSGNSQESVTEQDSKDSTYSLSSTLTLSKADYEKHKVYACEVTHQGLSSPVTKSFNRGEC"
